The numbers were not newly measured in publication PMC12332068, which cites them from elsewhere.

Data set [1] has as its target Bzz1 SH3#1-2 (Saccharomyces cerevisiae) (UniProt P38822). The data set can be described thus: BLI.
For data set [2], the target named is Bzz1 SH3#1 (Saccharomyces cerevisiae) (UniProt P38822). In words: BLI.

With Las17 300-422 (from UniProt Q12446), the Kd in data set [1] was 0.087 µM; in data set [2], 7.5 µM.
